The target in experiment [1] is T1, recombinant Thioredoxin-His-tagged PfPIMMS43 (amino acids 26-481), full-length (FL) recombinant PfPIMMS43 (Plasmodium falciparum, 3D7 entry (NF54 …, UniProt C6KT40)).
T1 construct: PfPIMMS43 (PSOP25) of Plasmodium falciparum, a 505-amino acid protein; E. coli codon-optimised; the methods give 25-481; pET-32b vector; Results give 26-481, methods 25-481; also called TRX-His-PfPIMMS43; PSOP25; not shown: Thioredoxin (TRX), N-terminal, kept; His6, N-terminal, kept; His6, C-terminal, kept
T1 sequence (C6KT40 26-481): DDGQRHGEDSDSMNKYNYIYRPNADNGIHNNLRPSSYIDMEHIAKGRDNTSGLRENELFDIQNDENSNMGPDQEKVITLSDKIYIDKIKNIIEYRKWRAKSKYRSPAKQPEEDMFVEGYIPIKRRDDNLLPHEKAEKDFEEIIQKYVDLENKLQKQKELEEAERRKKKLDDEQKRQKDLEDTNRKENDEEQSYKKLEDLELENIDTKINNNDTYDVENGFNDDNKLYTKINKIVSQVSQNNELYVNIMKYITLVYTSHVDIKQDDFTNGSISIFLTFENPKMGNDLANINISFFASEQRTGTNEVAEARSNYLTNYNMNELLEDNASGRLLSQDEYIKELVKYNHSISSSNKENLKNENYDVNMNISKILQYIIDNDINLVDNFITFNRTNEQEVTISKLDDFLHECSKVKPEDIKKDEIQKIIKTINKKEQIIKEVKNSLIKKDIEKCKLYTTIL
Put plainly: ELISA; dose response ELISA; MaxiSorp plates coated with 2 ug/mL recombinant PfPIMMS43 in PBS overnight, blocked with 4% skimmed milk; VHH from 1000 nM in serial 1:10 dilutions, 1 h at room temperature; detected with rabbit anti-VHH and donkey anti-rabbit HRP, OPD, 490 nm. The settings on record: both partners purified. On the technique in general: In an ELISA, binding on a coated surface is turned into a signal by an enzyme label.

The target of experiment [2] is T2, endogenous PfPIMMS43 produced by P. falciparum NF54 ookinetes (Plasmodium falciparum NF54 (entry 3D7, …, UniProt C6KT40)).
T2 construct: PfPIMMS43 (PSOP25) of Plasmodium falciparum NF54, a 505-amino acid protein with an N-terminal signal peptide and a C-terminal GPI anchor; seen as a ~60 kDa band; GPI-anchored surface protein of ookinetes; also called ~60 kDa PfPIMMS43 protein; PSOP25; source: endogenous, lysate of P. falciparum NF54-infected An. coluzzii midguts, 18 h post blood feeding
T2 sequence (C6KT40 25-505): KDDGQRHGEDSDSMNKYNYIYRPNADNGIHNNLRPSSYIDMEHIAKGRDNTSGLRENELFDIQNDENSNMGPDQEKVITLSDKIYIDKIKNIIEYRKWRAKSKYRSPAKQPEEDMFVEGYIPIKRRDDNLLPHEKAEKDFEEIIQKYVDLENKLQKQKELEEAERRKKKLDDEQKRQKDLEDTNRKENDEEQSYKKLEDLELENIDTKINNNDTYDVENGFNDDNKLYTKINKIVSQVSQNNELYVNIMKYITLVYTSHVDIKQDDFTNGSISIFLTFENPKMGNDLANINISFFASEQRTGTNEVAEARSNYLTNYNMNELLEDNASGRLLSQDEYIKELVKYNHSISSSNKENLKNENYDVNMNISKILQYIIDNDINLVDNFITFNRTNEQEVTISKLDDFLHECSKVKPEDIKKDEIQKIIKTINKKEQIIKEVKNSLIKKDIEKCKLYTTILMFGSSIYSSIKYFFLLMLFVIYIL
Put plainly: far-Western, overlay or dot blot; reduced lysates of P. falciparum NF54-infected An. coluzzii midguts (18 h post blood meal) on 10% SDS-PAGE, blotted to PVDF, probed with nanobody, detected with anti-MYC antibody; non-infected blood-fed midguts as control. The settings on record: one partner purified.

B1: PfPIMMS43 nanobody E5 (VHH)
VHH: EVQLVESGGGLVQAGGSLRLSCAASGIHFNFKAMAWYRQAPGKQRELVAAIAPDDDTNYADSVKGRFTISRDNAKNTVYLQMNSLKPEDTAVYYCNTRIRIDYWGQGTQVTVSS
notes: llama VHH; From an immune llama library (Eurogentec, pQ81 phagemid); CDR2 of 7 and CDR3 of 8 amino acids
With B1, the “binding affinity (dose response ELISA)” value in experiment [1] was 5 nM.

B2: PfPIMMS43 nanobody A5 (VHH)
VHH: EVQLVESGGGLVQAGVSLRLSCAASGRSLSNYAMGWFRQAPGKEREFVASITGSGSSTYYLNSVKGRFIISKDNAKNTVYLQMNSLKPEDTAVYYCAADSTGVARYTNRYDYWGQGTRVTVSS
notes: llama VHH; From an immune llama library (Eurogentec, pQ81 phagemid)
B2: the “binding affinity (dose response ELISA)” value in experiment [1] was > 50 nM.

B3: PfPIMMS43 nanobody E1 (VHH)
VHH: EVQLVESGGGLVQAGDSLRLSCAASDSTFSIYVMGWFRQAPGKEREFVAAITGSGGNTNYADSVKGRFTVSRDNAKHTVYLQMNSLKPEDAAVYYCAAGGSYSRSSLNYPYWGQGTQVTVSS
notes: as for B2
B3: in experiment [1], the “binding affinity (dose response ELISA)” value is > 50 nM.

B4: PfPIMMS43 nanobody H6 (VHH)
VHH: EVQLVESGGALVQAGNSLRLSCAASGRTFRSYVMGWFRQAPEKEREFVARIGWSAGSTYYTDSVKGRFTISRDDAKNTVYLQMNSLKPEDTAVYYCAAGRGYSDYDPSVGYGYWGQGTQVTVSS
notes: as for B2
Take B4: in experiment [1], the “binding affinity (dose response ELISA)” value is > 50 nM.

B5: PfPIMMS43 nanobody C12 (VHH)
VHH: EVQLVESGGGLVQAGGSLRLSCVDSGRTLSSYTMGWFRQAPGKEREFVAAVHYTGRRTYYADSVKGRFTISRDNDKNTVLLQMNSLKPEDTAVYYCAATEPPHSDYSTRLYNYHYWGQGTQVTVSS
notes: as for B2
Turning to B5, in experiment [2], the binding result is given as “binds”. Also, in experiment [1], the “binding affinity (dose response ELISA)” value stood at 6 nM.

B6: PfPIMMS43 nanobody E2 (VHH)
VHH: EVQLVESGGGLVQAGGSLRLSCAASGLTFNGDSMGWFRQAPGKEREFVAAIRWNEVAYYADFVKGRFTISRDNAKNTVTLQMNSLKPEDTAVYYCGAGVRAYSYTTRLTSASEYTYWGQGTQVTVSS
notes: llama VHH; From an immune llama library (Eurogentec, pQ81 phagemid); CDR2 of 7 amino acids
B6: the “binding affinity (dose response ELISA)” value in experiment [1] amounted to 8 nM.

B7: PfPIMMS43 nanobody B11 (VHH)
VHH: EVQLVESGGGLVRAGDSLRLSCAASGTPLSSYTMGWFRQAPGKEREFVAASCWRGGSAYDADSIEGRFTISRDNAKNTVYLQMNSLKPEDTAVYYCAAVFAYICSSYGNRSPSRYGYWGQGTQVTVSS
notes: as for B2
B7: the “binding affinity (dose response ELISA)” value in experiment [1] is > 50 nM.

B8: PfPIMMS43 nanobody G9 (VHH)
VHH: EVQLVESGGGLVQAGGSLRLSCAASEGTFSDYGMGWFRQAPGKEREFVASISWSGGRTGYRSSVKGRFTISRDNAKNTVYLQMNSLKPEDTAVYYCGAMSKYYRGDWSSRVTNYDDWGQGTQVTVSS
notes: llama VHH; From an immune llama library (Eurogentec, pQ81 phagemid); CDR3 of 20 amino acids
As for B8, the “binding affinity (dose response ELISA)” value in experiment [1] was determined as 3 nM.

B9: PfPIMMS43 nanobody A3 (VHH)
VHH: EVQLVESGGGLVQPGGSLRLSCAASGSIFDKNGMGWFRQPPGRQRELVASITTDGNKHYGDDAKGRFTISRDIAKKTAYLQMNSLKPEDTAVYYCATTRGNYYSKSPPPIYDYYYWGQGTQVTVSS
notes: as for B6
As to B9, the “binding affinity (dose response ELISA)” value in experiment [1] is > 50 nM.

For the origin of these results see article PMC12041390, “Nanobody-mediated targeting of Plasmodium falciparum PfPIMMS43 can block malaria transmission in mosquitoes” (Communications Biology, 2025).
